From PMC10285447

Experiments:
[1] = target: H4-IgM-P (pentameric H4 IgM) (human) (UniProt P01591); test: ELISA
[2] = target: P5C3-IgM-P (pentameric P5C3 IgM) (human) (UniProt P01591); test: ELISA; […] (from 500 ng/mL with P5C3, […]

SARS-CoV-2 spike protein RBD (Wuhan strain), recombinant (from UniProt P0DTC2 319-541) (domain or fragment)
EC50 [1]: 169 pM | EC50 [2]: 16 pM
